The source of these data is PMC9474881.

The target of the experiment is PsgIBP_L, larger (28 kDa) ice-binding protein isoform from Psychromyces glacialis (Psychromyces glacialis). The experiment is described as follows: SEC; analytical Superose12 column, 20 mM Tris-HCl pH 8.0 + 500 mM NaCl, 0.8 ml/min, 4 °C; 0.5 mL of 1 mg/ml protein loaded; molecular weight from a calibration line with five reference proteins. For orientation: SEC sorts molecules by how far they enter the pores of the column.

The stoichiometry N is a count of units in the complex or per binding partner.

On to “PsgIBP_L, larger (28 kDa) ice-binding protein isoform from Psychromyces glacialis (natural protein)”, for which the stoichiometry N amounted to 2.
